Experimental data taken from patent US10774129B2, “Complexes of types of MHC class II that bind to collagen type II peptides and their use on diagnosis and treatment” (FRAUNHOFER-GESELLSCHAFT ZUR FÖRDERUNG DER ANGEWANDTEN …, priority 2011, dated 2020).
Square brackets hold non-standard residues; d marks the D form. Ends that are not written are not given here. Cit = NC(=O)NCCC[C@H](N)C(=O)O

Legend:
Experiment in all cases: in vitro binding assay to recombinant MHC class II protein
[1] = molecular target: MHC class II of the HLA DRB1 0101 genotype (Homo sapiens, UniProt P01903+P01911, A100R/D57E/F55L/F60I/F76Y/I96L/L162R/M171V/P40L/Q125E/R42F/V115G/Y59C); set-up: key: *0101: the listing of the allele in the column for the allele indicates binding; *0401: “0401” in the “Binds to 0401” column indicates binding of the peptide to MHC class II of the HLA DRB1 0401 genotype; *0404: the listing of the allele in the column for the allele indicates binding; *0405: the listing of the allele in the column for the allele indicates binding; *0408: the listing of the allele in the column for the allele indicates binding; *1001: the listing of the allele in the column for the allele indicates binding; “no” or no data indicates no binding to a protein of that genotype
Text: (§1) Binding of the peptides to recombinant MHC class II protein of various alleles has been confirmed in an in vitro binding assay and the results are shown in Tables 1, 2 and 3. In table 1, 2 and 3, the listing of the allele in the column for the allele indicates binding. Thus “0401” in the “Binds to 0401” column indicates binding of the peptide to MHC class II of the HLA DRB1 0401 genotype. “no” or no data indicates no binding to a protein of that genotype. Empty boxes indicate no binding or that binding has not been determined. In the tables it is also indicated if the peptide has a citrulline residue, where “yes” indicates the presence of a citrulline residue and “no” indicates the absence of a citrulline residue.

[2] = molecular target: MHC class II of the HLA DRB1 0404 genotype (Homo sapiens, UniProt P01903+P01911, A100R/A169T/F76Y/I96L/K127E/L162R/M171V/N62H/P40V/Q125Y/R42H/S133A/S149N/S66Y/V209L/W38E); set-up: key: *0101: the listing of the allele in the column for the allele indicates binding; *0401: “0401” in the “Binds to 0401” column indicates binding of the peptide to MHC class II of the HLA DRB1 0401 genotype; *0404: the listing of the allele in the column for the allele indicates binding; *0405: the listing of the allele in the column for the allele indicates binding; *0408: the listing of the allele in the column for the allele indicates binding; *1001: the listing of the allele in the column for the allele indicates binding; “no” or no data indicates no binding to a protein of that genotype
Text: as §1

[3] = molecular target: MHC class II of the HLA DRB1 0405 genotype (Homo sapiens, UniProt P01903+P01911, A100R/A169T/D86S/F76Y/I96L/K127E/L162R/M171V/N62H/P40V/Q125Y/R42H/S133A/S149N/S66Y/V115G/V209L/W38E); set-up: key: *0101: the listing of the allele in the column for the allele indicates binding; *0401: “0401” in the “Binds to 0401” column indicates binding of the peptide to MHC class II of the HLA DRB1 0401 genotype; *0404: the listing of the allele in the column for the allele indicates binding; *0405: the listing of the allele in the column for the allele indicates binding; *0408: the listing of the allele in the column for the allele indicates binding; *1001: the listing of the allele in the column for the allele indicates binding; “no” or no data indicates no binding to a protein of that genotype
Text: as §1

[4] = molecular target: MHC class II of the HLA DRB1 0401 genotype (Homo sapiens, UniProt P01903+P01911, A100K/A169T/F76Y/I96L/K127E/L162R/M171V/N62H/P40V/Q125Y/R42H/S133A/S149N/S66Y/V115G/V209L/W38E); set-up: key to Binds to 0401: *0101: the listing of the allele in the column for the allele indicates binding; *0401: “0401” in the “Binds to 0401” column indicates binding of the peptide to MHC class II of the HLA DRB1 0401 genotype; *0404: the listing of the allele in the column for the allele indicates binding; *0405: the listing of the allele in the column for the allele indicates binding; *0408: the listing of the allele in the column for the allele indicates binding; *1001: the listing of the allele in the column for the allele indicates binding; “no” or no data indicates no binding to a protein of that genotype; details: recombinant MHC class II, HLA DRB1 0401
Text: as §1
Thus for these peptides no binding to HLA-DR0401 was observed when citrulline was exchanged with the original amino acid arginine (Table 4). No binding of the citrullinated peptides was seen to HLA-DR 03 or 02 variants.

[5] = test system: MHC class II of the HLA DRB1 0408 genotype; set-up: species or system human; key: *0101: the listing of the allele in the column for the allele indicates binding; *0401: “0401” in the “Binds to 0401” column indicates binding of the peptide to MHC class II of the HLA DRB1 0401 genotype; *0404: the listing of the allele in the column for the allele indicates binding; *0405: the listing of the allele in the column for the allele indicates binding; *0408: the listing of the allele in the column for the allele indicates binding; *1001: the listing of the allele in the column for the allele indicates binding; “no” or no data indicates no binding to a protein of that genotype
Text: as §1

[6] = test system: MHC class II of the HLA DRB1 1001 genotype; set-up: species or system human; key to Binds to 1001: *0101: the listing of the allele in the column for the allele indicates binding; *0401: “0401” in the “Binds to 0401” column indicates binding of the peptide to MHC class II of the HLA DRB1 0401 genotype; *0404: the listing of the allele in the column for the allele indicates binding; *0405: the listing of the allele in the column for the allele indicates binding; *0408: the listing of the allele in the column for the allele indicates binding; *1001: the listing of the allele in the column for the allele indicates binding; “no” or no data indicates no binding to a protein of that genotype; details: recombinant MHC class II, HLA DRB1 1001
Text: as §1

Row | Binds to 0101 [1] | Binds to 0404 [2] | Binds to 0405 [3] | Binds to 0401 [4] | Binds to 0408 [5] | Binds to 1001 [6] | Substance
1 | *0101 | *0404 | no | no | *0408 | no | a-enolase 14: human alpha-enolase peptide, not citrullinated (VEHINKTIAPALVSK; listed as Homo sapiens)
2 | *0101 | no | *0405 | no | *0408 | no | a-enolase 80: human alpha-enolase peptide, not citrullinated (GAPCRSERLAKYNQL; listed as Homo sapiens)
3 | *0101 | *0404 | *0405 | *0401 | *0408 | *1001 | a-enolase 57: human alpha-enolase peptide, not citrullinated (KSFIKDYPVVSIEDP; listed as Homo sapiens)
4 | *0101 | *0404 | no | no | no | no | a-enolase 13: human alpha-enolase peptide, not citrullinated (GVSKAVEHINKTIAP; listed as Homo sapiens)
5 | *0101 | *0404 | no | no | no | no | a-enolase 81: human alpha-enolase peptide, not citrullinated (SERLAKYNQLLRIEE; listed as Homo sapiens)
6 | *0101 | no | *0405 | no | *0408 | *1001 | a-enolase 12: human alpha-enolase peptide, not citrullinated (RYMGKGVSKAVEHIN; listed as Homo sapiens)
7 | no | no | *0405 | *0401 | *0408 | no | a-enolase 299: citrullinated human alpha-enolase peptide (KGVPLY[Cit]HIADLAGN; listed as Homo sapiens)
8 | *0101 | *0404 | no | no | *0408 | no | a-enolase 15: human alpha-enolase peptide, not citrullinated (KTIAPALVSKKLNVT; listed as Homo sapiens)
9 |  |  |  |  |  | *1001 | type II collagen 263: human collagen type II peptide, not citrullinated (GDRGEAGAQGPMGPS; listed as Homo sapiens)
10 | *0101 | *0404 | *0405 | no | no | *1001 | a-enolase 1: human alpha-enolase peptide, not citrullinated (MSILKIHAREIFDSR; listed as Homo sapiens)
11 | *0101 | no | *0405 | no | no | no | a-enolase 36: human alpha-enolase peptide, not citrullinated (ANFREAMRIGAEVYH; listed as Homo sapiens)
12 |  |  |  |  |  | *1001 | type II collagen 268: human collagen type II peptide, not citrullinated (PQGPRGDKGEAGEPG; listed as Homo sapiens)
13 | *0101 | no | *0405 | *0401 | *0408 | no | a-enolase 38: human alpha-enolase peptide, not citrullinated (AEVYHNLKNVIKEKY; listed as Homo sapiens)
14 |  |  |  |  |  | *1001 | type II collagen 362: citrullinated human collagen type II peptide (PKGANGDPG[Cit]PGEPG; listed as Homo sapiens)
15 | *0101 | *0404 | *0405 | *0401 | no | no | a-enolase 34: human alpha-enolase peptide, not citrullinated (QEFMILPVGAANFRE; listed as Homo sapiens)
16 |  |  |  |  | *0408 | *1001 | type II collagen 384: citrullinated human collagen type II peptide (QGP[Cit]GLPGTPGTDGP; listed as Homo sapiens)
17 | *0101 | *0404 | no | *0401 |  |  | vimentin 104: citrullinated human vimentin peptide (SPGGVYAT[Cit]SSAV[Cit]L; listed as Homo sapiens)
18 | *0101 | *0404 | *0405 | *0401 |  |  | type II collagen 242: human collagen type II peptide, not citrullinated (GIVGLPGQRGERGFP; listed as Homo sapiens)
19 | *0101 | *0404 | *0405 | *0401 |  |  | vimentin 106: citrullinated human vimentin peptide (SAV[Cit]L[Cit]SSVPGV[Cit]LL; listed as Homo sapiens)
